In publication PMC2946066:

Target: VHH ALc-B8 expressed as thioredoxin fusion protein (alpaca)
Experiment: SPR

recombinant BoNT/A protease (light chain), amino acids 1–448 of BoNT/A holotoxin (from UniProt P0DPI1 1-448) (enzyme)
Kd: 1.06 nM
